Measured values published in patent EP4089107A1 (Cytoki Pharma ApS, dated 2022).

T1: human IL-22 receptor (human IL-22Ra and human IL-10Rb) expressed on BHK reporter cells (human, UniProt Q8N6P7 16-574; Q08334 20-325)
T1 sequence (looked up) 1: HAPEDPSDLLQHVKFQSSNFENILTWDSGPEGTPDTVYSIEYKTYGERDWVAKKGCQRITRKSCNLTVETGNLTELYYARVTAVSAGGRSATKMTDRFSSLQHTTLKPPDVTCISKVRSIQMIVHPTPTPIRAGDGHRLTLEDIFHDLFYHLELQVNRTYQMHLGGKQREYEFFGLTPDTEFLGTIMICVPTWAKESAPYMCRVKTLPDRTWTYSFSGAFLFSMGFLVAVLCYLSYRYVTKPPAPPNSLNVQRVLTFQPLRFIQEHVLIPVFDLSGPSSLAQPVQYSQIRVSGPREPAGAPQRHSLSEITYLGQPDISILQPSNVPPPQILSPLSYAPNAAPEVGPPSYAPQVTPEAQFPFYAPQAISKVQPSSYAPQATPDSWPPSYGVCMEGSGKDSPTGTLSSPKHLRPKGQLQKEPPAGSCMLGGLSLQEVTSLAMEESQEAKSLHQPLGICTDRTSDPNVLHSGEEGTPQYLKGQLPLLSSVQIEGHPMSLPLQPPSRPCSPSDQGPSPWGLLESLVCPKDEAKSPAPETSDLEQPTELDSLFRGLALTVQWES
T1 sequence (looked up) 2: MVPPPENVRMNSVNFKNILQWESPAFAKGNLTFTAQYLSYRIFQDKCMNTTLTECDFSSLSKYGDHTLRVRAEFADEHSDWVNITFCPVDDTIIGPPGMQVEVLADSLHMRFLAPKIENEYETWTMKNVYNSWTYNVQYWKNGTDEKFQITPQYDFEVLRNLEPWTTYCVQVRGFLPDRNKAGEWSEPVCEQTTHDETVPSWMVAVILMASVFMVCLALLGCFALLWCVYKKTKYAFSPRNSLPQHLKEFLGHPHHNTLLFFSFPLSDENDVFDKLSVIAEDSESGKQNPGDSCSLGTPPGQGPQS


Key:
[1] = target: T1, human IL-22 receptor (human IL-22Ra and …); test: cell-based or functional assay
[2] = target: T1, human IL-22 receptor (human IL-22Ra and …); test: cell-based or functional assay; remark: listed apart in the source

Binder	EC50 in BHK cell reporter gene assay (luciferase with STAT3-induced promoter) [1] [nM]	fold reduction in potency compared to hIL-22, BHK cell assay with albumin present [2] [fold]
native mature human IL-22 (ligand) APISSHCRLDKSNFQQPYITNRTFMLAKEASLADNNTDVRLIGEKLFHGVSMSERCYLMKQVLNFTLEEVLFPQSDRFQPYMQEVVPFLARLSNRLSTCHIEGDDLHIQRNVQKLKDTVKKLGESGEIKAIGELDLLFMSLRNACI	0.07	–
Derivative 2 (ligand, C18 diacid covalently attached via linker γGlu-OEG-OEG-C2DA-Ac at residue 95C) APISSHCRLDKSNFQQPYITNRTFMLAKEASLADQNTDVRLIGEKLFHGVSMSERCYLMKQVLQFTLEEVLFPQSDRFQPYMQEVVPFLARLSNCLSTCHIEGDDLHIQRNVQKLKDTVKKLGESGEIKAIGELDLLFMSLRNACI	0.36	5
Derivative 1 (ligand, C18 diacid covalently attached via linker γGlu-OEG-OEG-C2DA-Ac at residue 106C) APISSHCRLDKSNFQQPYITNRTFMLAKEASLADQNTDVRLIGEKLFHGVSMSERCYLMKQVLQFTLEEVLFPQSDRFQPYMQEVVPFLARLSNRLSTCHIEGDDCHIQRNVQKLKDTVKKLGESGEIKAIGELDLLFMSLRNACI	0.23	3
